# Patent US6613329
# Columns and labels:
# [1] = target: Crotalus durissus terrificus venom; test: ELISA, venom-coated wells; 1:5
# [2] = target: Crotalus durissus terrificus venom; test: ELISA, venom-coated wells; 1:25
# [3] = target: Crotalus durissus terrificus venom; test: ELISA, venom-coated wells; 1:125
# [4] = target: Crotalus durissus terrificus venom; test: ELISA, venom-coated wells; 1:625
# [5] = target: Crotalus durissus terrificus venom; test: ELISA, venom-coated wells; 1:3125
# [6] = target: Crotalus durissus terrificus venom; test: ELISA, venom-coated wells; 1:62,500
# [7] = target: Crotalus durissus terrificus venom; test: ELISA, venom-coated wells; 1:312,500
# [8] = target: Crotalus durissus terrificus venom; test: ELISA, venom-coated wells (5 µg/ml); 1:5
# [9] = target: Crotalus durissus terrificus venom; test: ELISA, venom-coated wells (5 µg/ml); 1:25
# [10] = target: Crotalus durissus terrificus venom; test: ELISA, venom-coated wells (5 µg/ml); 1:125
# [11] = target: Crotalus durissus terrificus venom; test: ELISA, venom-coated wells (5 µg/ml); 1:625
# [12] = target: Crotalus durissus terrificus venom; test: ELISA, venom-coated wells (5 µg/ml); 1:3125
# [13] = target: Crotalus durissus terrificus venom; test: ELISA, venom-coated wells (5 µg/ml); undiluted
substance,measurement,setting,value
preimmune chicken IgY (PEG prep) (antibody),ELISA absorbance,[1],< 0 absorbance
same,ELISA absorbance,[2],0.016 absorbance
same,ELISA absorbance,[3],< 0 absorbance
same,ELISA absorbance,[4],< 0 absorbance
same,ELISA absorbance,[5],< 0 absorbance
same,ELISA absorbance (absorbance (412 nm filter)),[6],0.001
same,ELISA absorbance (absorbance (412 nm filter)),[7],0.01
same,ELISA absorbance,[8],< 0 absorbance
same,ELISA absorbance,[9],0 absorbance
same,ELISA absorbance,[10],0.003 absorbance
same,ELISA absorbance,[11],0 absorbance
same,ELISA absorbance,[12],0.002 absorbance
same,ELISA absorbance,[13],0.003 absorbance
